{
  "source": "patent US20080057063A1",
  "key": {"[1]": {"biological_target": "human αV on parental A375M cells, which express αVβ3 and αVβ5, but not αVβ6 (human) (UniProt P06756)", "sequence (P06756 31-1048 A375M)": "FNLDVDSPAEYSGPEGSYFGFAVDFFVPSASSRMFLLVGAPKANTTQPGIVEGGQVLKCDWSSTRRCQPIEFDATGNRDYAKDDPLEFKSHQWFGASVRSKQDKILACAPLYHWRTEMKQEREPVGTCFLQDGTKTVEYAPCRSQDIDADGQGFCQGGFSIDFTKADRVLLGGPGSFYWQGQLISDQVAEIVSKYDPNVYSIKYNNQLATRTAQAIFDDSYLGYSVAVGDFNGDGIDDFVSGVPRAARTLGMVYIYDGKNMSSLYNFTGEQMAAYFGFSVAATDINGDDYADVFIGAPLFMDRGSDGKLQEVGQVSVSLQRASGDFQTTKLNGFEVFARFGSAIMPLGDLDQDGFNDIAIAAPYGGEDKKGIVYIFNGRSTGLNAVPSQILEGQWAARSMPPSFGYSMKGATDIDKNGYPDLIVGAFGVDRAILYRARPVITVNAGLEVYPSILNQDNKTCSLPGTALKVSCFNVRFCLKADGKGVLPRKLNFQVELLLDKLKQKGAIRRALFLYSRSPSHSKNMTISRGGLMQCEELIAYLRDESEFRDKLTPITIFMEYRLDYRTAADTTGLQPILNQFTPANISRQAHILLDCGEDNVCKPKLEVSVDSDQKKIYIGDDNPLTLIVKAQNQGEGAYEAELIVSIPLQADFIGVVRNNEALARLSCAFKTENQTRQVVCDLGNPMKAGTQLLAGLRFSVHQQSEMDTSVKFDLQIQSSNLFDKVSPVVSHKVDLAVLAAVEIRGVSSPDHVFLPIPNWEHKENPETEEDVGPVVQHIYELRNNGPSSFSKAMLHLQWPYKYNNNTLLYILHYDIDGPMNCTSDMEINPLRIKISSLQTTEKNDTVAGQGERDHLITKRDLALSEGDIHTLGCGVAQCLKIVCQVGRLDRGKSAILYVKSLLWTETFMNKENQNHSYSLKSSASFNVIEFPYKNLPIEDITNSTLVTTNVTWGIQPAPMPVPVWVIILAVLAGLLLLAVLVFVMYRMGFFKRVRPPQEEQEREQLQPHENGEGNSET", "test": "FACS, parental A375M cells, day 1"}, "[2]": {"biological_target": "cynomolgus αVβ6 on cells (cynomolgus)", "test": "FACS, HEK-293 transfected with cynomolgus αV and β6, day 2"}, "[3]": {"biological_target": "cynomolgus αVβ6 on cells (cynomolgus)", "test": "FACS, HEK-293 transfected with cynomolgus αV and β6, day 1"}, "[4]": {"biological_target": "human αV on parental A375M cells, which express αVβ3 and αVβ5, but not αVβ6 (human) (UniProt P06756)", "test": "cell-based or functional assay"}, "[5]": {"biological_target": "α5β1 integrin (on K562 cells) (UniProt P08648)", "test": "cell-based or functional assay"}, "[6]": {"biological_target": "human αV on parental A375M cells, which express αVβ3 and αVβ5, but not αVβ6 (human) (UniProt P06756)", "test": "FACS, parental A375M cells, day 2"}, "[7]": {"biological_target": "cynomolgus αVβ6 on cells (cynomolgus)", "test": "FACS, HEK-293 transfected with cynomolgus αVβ6"}, "[8]": {"biological_target": "cynomolgus αVβ6 on cells (cynomolgus)", "test": "FACS, K562 cells expressing cynomolgus αVβ6 (parental 46)"}, "[9]": {"biological_target": "cynomolgus β6 (HEK-293 cells transfected with cynomolgus β6 alone) (cynomolgus)", "test": "FACS, HEK-293 transfected with cynomolgus β6"}, "[10]": {"biological_target": "mouse αVβ6 on cells (mouse) (UniProt P43406)", "sequence (P43406 31-1044, chain 1 of 2)": "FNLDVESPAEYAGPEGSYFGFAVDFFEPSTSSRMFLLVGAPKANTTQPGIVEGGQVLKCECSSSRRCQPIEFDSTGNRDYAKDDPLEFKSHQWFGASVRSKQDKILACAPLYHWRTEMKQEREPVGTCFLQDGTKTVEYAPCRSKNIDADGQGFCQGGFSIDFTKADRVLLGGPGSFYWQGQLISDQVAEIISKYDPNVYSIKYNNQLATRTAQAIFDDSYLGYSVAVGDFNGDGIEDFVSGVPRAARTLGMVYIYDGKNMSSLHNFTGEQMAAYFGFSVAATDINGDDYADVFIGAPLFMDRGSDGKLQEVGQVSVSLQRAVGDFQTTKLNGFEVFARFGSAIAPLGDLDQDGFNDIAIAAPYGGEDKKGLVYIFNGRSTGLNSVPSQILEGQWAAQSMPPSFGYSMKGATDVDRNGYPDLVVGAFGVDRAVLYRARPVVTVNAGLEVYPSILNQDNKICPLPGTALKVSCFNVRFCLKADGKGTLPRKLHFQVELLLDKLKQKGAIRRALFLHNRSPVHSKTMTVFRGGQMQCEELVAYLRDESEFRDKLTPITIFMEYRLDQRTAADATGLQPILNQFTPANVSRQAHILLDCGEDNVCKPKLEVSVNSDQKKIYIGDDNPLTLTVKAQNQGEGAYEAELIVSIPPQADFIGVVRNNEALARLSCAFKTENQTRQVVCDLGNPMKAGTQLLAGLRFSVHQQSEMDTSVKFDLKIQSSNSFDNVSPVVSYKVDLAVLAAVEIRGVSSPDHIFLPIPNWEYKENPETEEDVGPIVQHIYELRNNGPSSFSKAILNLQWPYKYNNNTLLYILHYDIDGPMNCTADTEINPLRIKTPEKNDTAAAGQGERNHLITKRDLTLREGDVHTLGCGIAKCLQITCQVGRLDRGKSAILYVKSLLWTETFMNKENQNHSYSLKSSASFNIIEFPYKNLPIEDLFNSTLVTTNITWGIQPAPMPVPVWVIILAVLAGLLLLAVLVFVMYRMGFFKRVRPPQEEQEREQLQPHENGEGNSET", "sequence (Q9Z0T9 22-787, chain 2 of 2, further chain)": "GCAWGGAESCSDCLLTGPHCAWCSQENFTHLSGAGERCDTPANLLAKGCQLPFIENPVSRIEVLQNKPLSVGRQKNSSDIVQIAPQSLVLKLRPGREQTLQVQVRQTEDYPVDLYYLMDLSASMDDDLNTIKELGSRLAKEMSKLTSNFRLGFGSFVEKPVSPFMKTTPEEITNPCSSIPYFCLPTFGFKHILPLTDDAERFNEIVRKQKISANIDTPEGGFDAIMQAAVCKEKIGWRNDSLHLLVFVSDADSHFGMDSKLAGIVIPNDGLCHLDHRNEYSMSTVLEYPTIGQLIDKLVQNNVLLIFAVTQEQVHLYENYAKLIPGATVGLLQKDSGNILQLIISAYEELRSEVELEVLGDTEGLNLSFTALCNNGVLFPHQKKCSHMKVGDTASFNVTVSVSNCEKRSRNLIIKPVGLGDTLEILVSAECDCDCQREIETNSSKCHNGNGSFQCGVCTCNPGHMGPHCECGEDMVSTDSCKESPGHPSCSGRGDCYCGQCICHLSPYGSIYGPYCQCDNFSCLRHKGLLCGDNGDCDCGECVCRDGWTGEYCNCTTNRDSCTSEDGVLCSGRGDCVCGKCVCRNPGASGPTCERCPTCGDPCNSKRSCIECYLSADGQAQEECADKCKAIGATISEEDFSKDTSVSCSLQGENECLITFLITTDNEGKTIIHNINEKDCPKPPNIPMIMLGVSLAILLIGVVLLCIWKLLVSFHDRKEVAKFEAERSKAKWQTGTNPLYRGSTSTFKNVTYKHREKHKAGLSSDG", "test": "FACS, HEK-293 transfected with mouse αVβ6"}, "[11]": {"biological_target": "α4β1 integrin (on J6.77 cells) (UniProt P13612)", "test": "cell-based or functional assay"}, "[12]": {"biological_target": "mouse β6 (HEK-293 cells transfected with mouse β6 alone) (mouse) (UniProt Q9Z0T9)", "sequence (Q9Z0T9 22-787)": "as the sequence (Q9Z0T9 22-787, chain 2 of 2, further chain) above", "test": "FACS, HEK-293 transfected with mouse β6"}, "[13]": {"biological_target": "cynomolgus αV (HEK-293 cells transfected with cynomolgus αV alone) (cynomolgus)", "test": "FACS, HEK-293 transfected with cynomolgus αV"}, "[14]": {"biological_target": "mouse αVβ6 on cells (mouse) (UniProt P43406)", "test": "FACS, K562 cells expressing mouse αVβ6 (parental 46)"}, "[15]": {"biological_target": "mouse αV (HEK-293 cells transfected with mouse αV alone) (mouse) (UniProt P43406)", "sequence (P43406 31-1044)": "as the sequence (P43406 31-1044, chain 1 of 2) above", "test": "FACS, HEK-293 transfected with mouse αV"}, "[16]": {"biological_target": "cynomolgus αVβ6 on cells (cynomolgus)", "test": "FACS, K562 cells expressing cynomolgus αVβ6 (parental 15)"}, "[17]": {"biological_target": "soluble αVβ6 (human) (UniProt P06756)", "test": "ELISA on coated soluble αVβ6, 1 ug/mL"}, "[18]": {"biological_target": "mouse αVβ6 on cells (mouse) (UniProt P43406)", "test": "FACS, K562 cells expressing mouse αVβ6 (parental 15)"}, "[19]": {"biological_target": "human αVβ6 integrin on cells (human) (UniProt P06756)", "sequence (P06756 31-1048, chain 1 of 2)": "as the sequence (P06756 31-1048 A375M) above, with M345A counted along it", "sequence (P18564 22-788, chain 2 of 2, further chain)": "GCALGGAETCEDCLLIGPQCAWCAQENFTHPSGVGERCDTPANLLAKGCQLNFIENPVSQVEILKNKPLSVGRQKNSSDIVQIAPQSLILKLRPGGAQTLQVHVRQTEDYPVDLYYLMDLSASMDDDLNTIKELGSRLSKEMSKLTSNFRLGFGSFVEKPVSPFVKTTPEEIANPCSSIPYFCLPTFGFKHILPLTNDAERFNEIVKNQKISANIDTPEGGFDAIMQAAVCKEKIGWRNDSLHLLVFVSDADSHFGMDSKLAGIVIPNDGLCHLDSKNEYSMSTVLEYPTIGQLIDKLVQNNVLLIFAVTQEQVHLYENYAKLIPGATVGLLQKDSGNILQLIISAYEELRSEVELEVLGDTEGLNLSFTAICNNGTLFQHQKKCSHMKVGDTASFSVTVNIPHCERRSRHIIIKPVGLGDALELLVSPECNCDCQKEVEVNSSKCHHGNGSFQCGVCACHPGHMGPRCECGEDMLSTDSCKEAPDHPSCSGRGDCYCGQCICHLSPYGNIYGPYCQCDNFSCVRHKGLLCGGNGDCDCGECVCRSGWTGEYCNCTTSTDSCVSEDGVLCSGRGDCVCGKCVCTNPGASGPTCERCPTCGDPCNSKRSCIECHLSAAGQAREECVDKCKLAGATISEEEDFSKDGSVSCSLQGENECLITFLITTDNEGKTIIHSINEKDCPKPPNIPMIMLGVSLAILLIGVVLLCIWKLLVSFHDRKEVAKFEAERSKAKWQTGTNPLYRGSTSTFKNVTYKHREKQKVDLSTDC", "test": "cell-based or functional assay"}, "[20]": {"biological_target": "human αVβ6 integrin on cells (human) (UniProt P06756)", "test": "FMAT, HEK 293 cells overexpressing αVβ6, 1 ug/mL"}, "[21]": {"biological_target": "mouse αVβ6 on cells (mouse) (UniProt P43406)", "test": "FACS, K562 cells expressing mouse αVβ6 (parental 12)"}, "[22]": {"biological_target": "cynomolgus αVβ6 on cells (cynomolgus)", "test": "FACS, K562 cells expressing cynomolgus αVβ6 (parental 12)"}, "[23]": {"biological_target": "mouse αVβ6 on cells (mouse) (UniProt P43406)", "test": "FACS, K562 cells expressing mouse αVβ6 (parental 23)"}, "[24]": {"biological_target": "cynomolgus αVβ6 on cells (cynomolgus)", "test": "FACS, K562 cells expressing cynomolgus αVβ6 (parental 23)"}},
  "data": [
    {"substance": "Human IgG Isotype Control (antibody)", "values": [
      {"measurement": "% Cells Shifted", "setting": "[1]", "value": 5, "unit": "%"},
      {"measurement": "GeoMean", "setting": "[1]", "value": 1.66},
      {"measurement": "% Cells Shifted", "setting": "[2]", "value": 0, "unit": "%"},
      {"measurement": "GeoMean", "setting": "[2]", "value": 7.39},
      {"measurement": "% Cells Shifted", "setting": "[3]", "value": 1, "unit": "%"},
      {"measurement": "GeoMean", "setting": "[3]", "value": 9.54},
      {"measurement": "Percent Inhibition (A375M adhesion to osteopontin peptide, 5 µg/ml)", "setting": "[4]", "value": 3, "unit": "%"},
      {"measurement": "% Inhibition (K562 adhesion to fibronectin)", "setting": "[5]", "value": -12, "unit": "%"},
      {"measurement": "Percent Inhibition (K562 adhesion to FN9-10 peptide of fibronectin, 5 µg/ml)", "setting": "[5]", "value": 11, "unit": "%"},
      {"measurement": "% Cells Shifted", "setting": "[6]", "value": 1, "unit": "%"},
      {"measurement": "GeoMean", "setting": "[6]", "value": 7.23}
    ]},
    {"substance": "Human IgG1 (antibody)", "values": [
      {"measurement": "percent of cells shifted", "setting": "[7]", "value": 0, "unit": "%"},
      {"measurement": "Geometric Mean Shift", "setting": "[8]", "value": 54},
      {"measurement": "percent of cells shifted", "setting": "[9]", "value": 1, "unit": "%"},
      {"measurement": "percent of cells shifted", "setting": "[10]", "value": 1, "unit": "%"},
      {"measurement": "Percent Inhibition (J6.77 adhesion to CS-1 peptide of fibronectin, 5 ug/ml)", "setting": "[11]", "value": 26, "unit": "%"},
      {"measurement": "percent of cells shifted", "setting": "[12]", "value": 0, "unit": "%"},
      {"measurement": "percent of cells shifted", "setting": "[13]", "value": 1, "unit": "%"},
      {"measurement": "Geometric Mean Shift", "setting": "[14]", "value": 108},
      {"measurement": "percent of cells shifted", "setting": "[15]", "value": 1, "unit": "%"}
    ]},
    {"substance": "murine αVβ6 antibody (Cat#MAB2077z, Chemicon)", "values": [
      {"measurement": "% Cells Shifted", "setting": "[1]", "value": 30, "unit": "%"},
      {"measurement": "GeoMean", "setting": "[1]", "value": 2.03},
      {"measurement": "Geometric Mean Shift", "setting": "[16]", "value": 84},
      {"measurement": "percent of cells shifted", "setting": "[7]", "value": 20, "unit": "%"},
      {"measurement": "ELISA OD", "setting": "[17]", "value": 6},
      {"measurement": "% Cells Shifted", "setting": "[2]", "value": 11, "unit": "%"},
      {"measurement": "GeoMean", "setting": "[2]", "value": 28.1},
      {"measurement": "percent of cells shifted", "setting": "[9]", "value": 5, "unit": "%"},
      {"measurement": "Geometric Mean Shift", "setting": "[18]", "value": 122},
      {"measurement": "percent of cells shifted", "setting": "[10]", "value": 45, "unit": "%"},
      {"measurement": "% Cells Shifted", "setting": "[3]", "value": 42, "unit": "%"},
      {"measurement": "GeoMean", "setting": "[3]", "value": 55.5},
      {"measurement": "Estimated IC50, n = 1 (HT29 adhesion to TGFβLAP)", "setting": "[19]", "value": 0.226, "unit": "µg/mL"},
      {"measurement": "Estimated IC50, n = 2 (HT29 adhesion to TGFβLAP)", "setting": "[19]", "value": 0.185, "unit": "µg/mL"},
      {"measurement": "Estimated IC50, n = 3 (HT29 adhesion to TGFβLAP)", "setting": "[19]", "value": 0.286, "unit": "µg/mL"},
      {"measurement": "percent of cells shifted", "setting": "[12]", "value": 11, "unit": "%"},
      {"measurement": "percent of cells shifted", "setting": "[13]", "value": 0, "unit": "%"},
      {"measurement": "percent of cells shifted", "setting": "[15]", "value": 1, "unit": "%"},
      {"measurement": "FMAT Count", "setting": "[20]", "value": 67},
      {"measurement": "FMAT FL1", "setting": "[20]", "value": 659},
      {"measurement": "FMAT FL1 × Count", "setting": "[20]", "value": 44200},
      {"measurement": "% Cells Shifted", "setting": "[6]", "value": 5, "unit": "%"},
      {"measurement": "GeoMean", "setting": "[6]", "value": 15.4}
    ]},
    {"substance": "Mouse IgG1 (antibody)", "values": [
      {"measurement": "Geometric Mean Shift", "setting": "[21]", "value": 20},
      {"measurement": "Geometric Mean Shift", "setting": "[22]", "value": 13}
    ]},
    {"substance": "Human IgG2 (antibody)", "values": [
      {"measurement": "Percent Inhibition (J6.77 adhesion to CS-1 peptide of fibronectin, 5 ug/ml)", "setting": "[11]", "value": 13, "unit": "%"}
    ]},
    {"substance": "Human IgG4 (antibody)", "values": [
      {"measurement": "Percent Inhibition (J6.77 adhesion to CS-1 peptide of fibronectin, 5 ug/ml)", "setting": "[11]", "value": 15, "unit": "%"}
    ]},
    {"substance": "Mouse IgG2a (antibody)", "values": [
      {"measurement": "Geometric Mean Shift", "setting": "[23]", "value": 36},
      {"measurement": "Geometric Mean Shift", "setting": "[24]", "value": 25}
    ]},
    {"substance": "Mouse IgG2 with Murine Secondary Antibody", "values": [
      {"measurement": "% Cells Shifted", "setting": "[1]", "value": 4, "unit": "%"},
      {"measurement": "GeoMean", "setting": "[1]", "value": 1.67},
      {"measurement": "% Cells Shifted", "setting": "[2]", "value": 0, "unit": "%"},
      {"measurement": "GeoMean", "setting": "[2]", "value": 11.2},
      {"measurement": "% Cells Shifted", "setting": "[3]", "value": 1, "unit": "%"},
      {"measurement": "GeoMean", "setting": "[3]", "value": 8.85},
      {"measurement": "% Cells Shifted", "setting": "[6]", "value": 3, "unit": "%"},
      {"measurement": "GeoMean", "setting": "[6]", "value": 11.2}
    ]},
    {"substance": "Mouse IgG Control (antibody)", "values": [
      {"measurement": "Percent Inhibition (A375M adhesion to osteopontin peptide, 5 µg/ml)", "setting": "[4]", "value": 5, "unit": "%"}
    ]}
  ]
}
